The values that follow come from patent publication US20210130437A1.

This assay addresses human PD-1 and human TIGIT co-expressed on Jurkat cells (Jurkat/PD-1/TIGIT cells) (human). The assay is described as follows: flow cytometry, Jurkat/PD-1/TIGIT cells. (In flow cytometry, cells or beads pass a laser one at a time.)

human PD-1 and human TIGIT co-expressed on Jurkat cells (Jurkat/PD-1/TIGIT cells) (human), sequence (chain, as listed by the source, chain 1 of 2): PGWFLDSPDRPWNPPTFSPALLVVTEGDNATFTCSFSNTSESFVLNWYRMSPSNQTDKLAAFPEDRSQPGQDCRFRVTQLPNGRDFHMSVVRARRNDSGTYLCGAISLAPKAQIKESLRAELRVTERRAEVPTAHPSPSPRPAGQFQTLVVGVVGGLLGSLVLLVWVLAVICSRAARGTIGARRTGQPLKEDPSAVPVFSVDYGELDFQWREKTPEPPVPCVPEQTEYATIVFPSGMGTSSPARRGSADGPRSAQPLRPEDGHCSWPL
human PD-1 and human TIGIT co-expressed on Jurkat cells (Jurkat/PD-1/TIGIT cells) (human), sequence (chain, as listed by the source, chain 2 of 2): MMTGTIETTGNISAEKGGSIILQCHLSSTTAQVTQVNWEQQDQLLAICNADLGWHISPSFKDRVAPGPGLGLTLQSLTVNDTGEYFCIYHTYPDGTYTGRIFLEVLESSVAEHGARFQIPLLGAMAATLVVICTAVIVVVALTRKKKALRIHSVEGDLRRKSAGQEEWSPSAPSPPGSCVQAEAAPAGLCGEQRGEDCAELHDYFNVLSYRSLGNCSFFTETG

B1: variant CD155 IgV-Fc P18S/S65W/S67A/L104Q/G111R (Fc fusion)
chain: WPPPGTGDVVVQAPTQVSGFLGDSVTLPCYLQVPNMEVTHVSQLTWARHGESGSMAVFHQTQGPWYAESKRLEFVAARLGAELRNASLRMFGLRVEDEGNYTCQFVTFPQRSRSVDIWLRVLAAAEPKSSDKTHTCPPCPAPELLGGPSVFLFPPKPKDTLMISRTPEVTCVVVDVSHEDPEVKFNWYVDGVEVHNAKTKPCEEQYGSTYRCVSVLTVLHQDWLNGKEYKCKVSNKALPAPIEKTISKAKGQPREPQVYTLPPSREEMTKNQVSLTCLVKGFYPSDIAVEWESNGQPENNYKTTPPVLDSDGSFFLYSKLTVDKSRWQQGNVFSCSVMHEALHNHYTQKSLSLSPGK
B1: the MFI at 6.25 nM amounted to 4890 MFI.
